# Patent US20180155451A1 (published 2018)
# T1: FcγRIIa R (human, UniProt P12318 34-217)
# T1 construct: extracellular domain; Soluble extracellular domain with C-terminal His tag, expressed in FreeStyle293 cells; also called FcgRIIa R; FcγRIIa type R; not shown: His tag attached to the C terminus
# T1 sequence (looked up): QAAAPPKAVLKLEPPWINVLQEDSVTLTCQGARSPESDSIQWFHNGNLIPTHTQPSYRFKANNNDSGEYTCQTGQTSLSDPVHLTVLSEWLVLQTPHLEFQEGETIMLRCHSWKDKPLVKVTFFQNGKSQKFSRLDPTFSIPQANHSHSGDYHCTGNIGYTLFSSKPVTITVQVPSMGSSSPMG
# Target: T1, FcγRIIa R
# Assay: SPR (Biacore), antibody captured via antigen peptide, FcγRIIa R as analyte; heterodimerized antibody
# Experimental: Analysis of interaction between objective antibody and the FcγR was carried out using Biacore T100 (GE Healthcare). HBS-EP+ (GE Healthcare) was used as the running buffer, and the measurement temperature was set to 25° C. Chips produced by immobilizing the antigen peptide by the amine coupling method to a Series S Sencor Chip CM5 (GE Healthcare), or alternatively, chips produced by allowing preliminarily biotinylated antigen peptides to interact with and immobilize onto a Series S Sensor Chip SA (certified) (GE Healthcare) were used. Antibodies of interest were captured onto an antigen peptide-immobilized chip, and allowed to interact to each FcγR diluted with running buffer. To regenerate and repeatedly use the chip, the antibodies captured on the chip were washed off by reacting 10 mM glycine-HCl, pH 1.5.
row,Binder,He/Con_2aR
1,"GpH7-A5/GpH7-B3 variant K326_16H/GpL16-k0 (antibody, human IgG1, kappa, heterodimerized; mutation in one H chain only; also called He Ab) heavy 1: not shown heavy 2: not shown light: DIVMTQSPLSLPVTPGEPASISCQASESLVHSNRNTYLHWYLQKPGQSPQLLIYKVSNRFSGVPDRFSGSGSGTDFTLKISRVEAEDVGVYYCSQNTHVPPTFGQGTKVEIERTVAAPSVFIFPPSDEQLKSGTASVVCLLNNFYPREAKVQWKVDNALQSGNSQESVTEQDSKDSTYSLSSTLTLSKADYEKHKVYACEVTHQGLSSPVTKSFNRGEC",120 % of control (GpH7-A5/GpH7-B3/GpL16-k0 = 100)
2,"GpH7-A5/GpH7-B3 variant K334_07I/GpL16-k0 (antibody, human IgG1, kappa, heterodimerized; mutation in one H chain only; also called He Ab) heavy 1: not shown heavy 2: not shown light: DIVMTQSPLSLPVTPGEPASISCQASESLVHSNRNTYLHWYLQKPGQSPQLLIYKVSNRFSGVPDRFSGSGSGTDFTLKISRVEAEDVGVYYCSQNTHVPPTFGQGTKVEIERTVAAPSVFIFPPSDEQLKSGTASVVCLLNNFYPREAKVQWKVDNALQSGNSQESVTEQDSKDSTYSLSSTLTLSKADYEKHKVYACEVTHQGLSSPVTKSFNRGEC",114 % of control (GpH7-A5/GpH7-B3/GpL16-k0 = 100)
3,"GpH7-A5/GpH7-B3 variant K334_18N/GpL16-k0 (antibody, human IgG1, kappa, heterodimerized; mutation in one H chain only; also called He Ab) heavy 1: not shown heavy 2: not shown light: DIVMTQSPLSLPVTPGEPASISCQASESLVHSNRNTYLHWYLQKPGQSPQLLIYKVSNRFSGVPDRFSGSGSGTDFTLKISRVEAEDVGVYYCSQNTHVPPTFGQGTKVEIERTVAAPSVFIFPPSDEQLKSGTASVVCLLNNFYPREAKVQWKVDNALQSGNSQESVTEQDSKDSTYSLSSTLTLSKADYEKHKVYACEVTHQGLSSPVTKSFNRGEC",112 % of control (GpH7-A5/GpH7-B3/GpL16-k0 = 100)
4,"GpH7-A5/GpH7-B3 variant K334_14T/GpL16-k0 (antibody, human IgG1, kappa, heterodimerized; mutation in one H chain only; also called He Ab) heavy 1: not shown heavy 2: not shown light: DIVMTQSPLSLPVTPGEPASISCQASESLVHSNRNTYLHWYLQKPGQSPQLLIYKVSNRFSGVPDRFSGSGSGTDFTLKISRVEAEDVGVYYCSQNTHVPPTFGQGTKVEIERTVAAPSVFIFPPSDEQLKSGTASVVCLLNNFYPREAKVQWKVDNALQSGNSQESVTEQDSKDSTYSLSSTLTLSKADYEKHKVYACEVTHQGLSSPVTKSFNRGEC",112 % of control (GpH7-A5/GpH7-B3/GpL16-k0 = 100)
5,"GpH7-A5/GpH7-B3 variant K334_16H/GpL16-k0 (antibody, human IgG1, kappa, heterodimerized; mutation in one H chain only; also called He Ab) heavy 1: not shown heavy 2: not shown light: DIVMTQSPLSLPVTPGEPASISCQASESLVHSNRNTYLHWYLQKPGQSPQLLIYKVSNRFSGVPDRFSGSGSGTDFTLKISRVEAEDVGVYYCSQNTHVPPTFGQGTKVEIERTVAAPSVFIFPPSDEQLKSGTASVVCLLNNFYPREAKVQWKVDNALQSGNSQESVTEQDSKDSTYSLSSTLTLSKADYEKHKVYACEVTHQGLSSPVTKSFNRGEC",109 % of control (GpH7-A5/GpH7-B3/GpL16-k0 = 100)
6,"GpH7-A5/GpH7-B3 variant K326_19Q/GpL16-k0 (antibody, human IgG1, kappa, heterodimerized; mutation in one H chain only; also called He Ab) heavy 1: not shown heavy 2: not shown light: DIVMTQSPLSLPVTPGEPASISCQASESLVHSNRNTYLHWYLQKPGQSPQLLIYKVSNRFSGVPDRFSGSGSGTDFTLKISRVEAEDVGVYYCSQNTHVPPTFGQGTKVEIERTVAAPSVFIFPPSDEQLKSGTASVVCLLNNFYPREAKVQWKVDNALQSGNSQESVTEQDSKDSTYSLSSTLTLSKADYEKHKVYACEVTHQGLSSPVTKSFNRGEC",129 % of control (GpH7-A5/GpH7-B3/GpL16-k0 = 100)

# The next lines start with the values.
row,He/Con_2aR,Binder
1,113 % of control (GpH7-A5/GpH7-B3/GpL16-k0 = 100),"GpH7-A5/GpH7-B3 variant S267_01G/GpL16-k0 (antibody, human IgG1, kappa, heterodimerized; mutation in one H chain only; also called He Ab) heavy 1: not shown heavy 2: not shown light: DIVMTQSPLSLPVTPGEPASISCQASESLVHSNRNTYLHWYLQKPGQSPQLLIYKVSNRFSGVPDRFSGSGSGTDFTLKISRVEAEDVGVYYCSQNTHVPPTFGQGTKVEIERTVAAPSVFIFPPSDEQLKSGTASVVCLLNNFYPREAKVQWKVDNALQSGNSQESVTEQDSKDSTYSLSSTLTLSKADYEKHKVYACEVTHQGLSSPVTKSFNRGEC"
2,138 % of control (GpH7-A5/GpH7-B3/GpL16-k0 = 100),"GpH7-A5/GpH7-B3 variant L328_04F/GpL16-k0 (antibody, human IgG1, kappa, heterodimerized; mutation in one H chain only; also called He Ab) heavy 1: not shown heavy 2: not shown light: DIVMTQSPLSLPVTPGEPASISCQASESLVHSNRNTYLHWYLQKPGQSPQLLIYKVSNRFSGVPDRFSGSGSGTDFTLKISRVEAEDVGVYYCSQNTHVPPTFGQGTKVEIERTVAAPSVFIFPPSDEQLKSGTASVVCLLNNFYPREAKVQWKVDNALQSGNSQESVTEQDSKDSTYSLSSTLTLSKADYEKHKVYACEVTHQGLSSPVTKSFNRGEC"
3,128 % of control (GpH7-A5/GpH7-B3/GpL16-k0 = 100),"GpH7-A5/GpH7-B3 variant S239_01G/GpL16-k0 (antibody, human IgG1, kappa, heterodimerized; mutation in one H chain only; also called He Ab) heavy 1: not shown heavy 2: not shown light: DIVMTQSPLSLPVTPGEPASISCQASESLVHSNRNTYLHWYLQKPGQSPQLLIYKVSNRFSGVPDRFSGSGSGTDFTLKISRVEAEDVGVYYCSQNTHVPPTFGQGTKVEIERTVAAPSVFIFPPSDEQLKSGTASVVCLLNNFYPREAKVQWKVDNALQSGNSQESVTEQDSKDSTYSLSSTLTLSKADYEKHKVYACEVTHQGLSSPVTKSFNRGEC"
4,137 % of control (GpH7-A5/GpH7-B3/GpL16-k0 = 100),"GpH7-A5/GpH7-B3 variant S239_09D/GpL16-k0 (antibody, human IgG1, kappa, heterodimerized; mutation in one H chain only; also called He Ab) heavy 1: not shown heavy 2: not shown light: DIVMTQSPLSLPVTPGEPASISCQASESLVHSNRNTYLHWYLQKPGQSPQLLIYKVSNRFSGVPDRFSGSGSGTDFTLKISRVEAEDVGVYYCSQNTHVPPTFGQGTKVEIERTVAAPSVFIFPPSDEQLKSGTASVVCLLNNFYPREAKVQWKVDNALQSGNSQESVTEQDSKDSTYSLSSTLTLSKADYEKHKVYACEVTHQGLSSPVTKSFNRGEC"
